Reference: patent US20160251440A1 (Ablynx, published 2016)

T1: human IL12Rβ2, cell-expressed (human, UniProt Q99665 24-862)
T1 sequence (looked up): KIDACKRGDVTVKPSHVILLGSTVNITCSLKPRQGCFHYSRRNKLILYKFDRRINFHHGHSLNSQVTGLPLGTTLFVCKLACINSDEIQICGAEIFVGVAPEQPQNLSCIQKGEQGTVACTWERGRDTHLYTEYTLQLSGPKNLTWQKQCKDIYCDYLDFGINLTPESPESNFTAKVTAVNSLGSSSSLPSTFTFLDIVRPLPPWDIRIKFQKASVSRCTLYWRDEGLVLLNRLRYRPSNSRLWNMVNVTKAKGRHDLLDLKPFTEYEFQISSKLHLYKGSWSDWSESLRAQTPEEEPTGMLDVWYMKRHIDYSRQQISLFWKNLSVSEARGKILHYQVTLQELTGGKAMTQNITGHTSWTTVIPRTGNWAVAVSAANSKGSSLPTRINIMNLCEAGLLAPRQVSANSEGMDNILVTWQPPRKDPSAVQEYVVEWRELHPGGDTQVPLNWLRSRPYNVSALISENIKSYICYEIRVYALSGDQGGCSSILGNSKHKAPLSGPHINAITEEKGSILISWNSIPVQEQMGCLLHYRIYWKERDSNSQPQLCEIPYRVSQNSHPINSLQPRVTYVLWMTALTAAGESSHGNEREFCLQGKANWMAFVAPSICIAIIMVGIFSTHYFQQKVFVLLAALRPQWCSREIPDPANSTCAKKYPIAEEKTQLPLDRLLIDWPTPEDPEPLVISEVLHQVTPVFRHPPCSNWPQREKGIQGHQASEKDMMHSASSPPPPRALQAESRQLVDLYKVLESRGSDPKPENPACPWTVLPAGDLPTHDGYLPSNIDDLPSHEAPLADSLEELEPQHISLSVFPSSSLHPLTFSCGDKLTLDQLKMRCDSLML

T2: human IL12Rβ2 extracellular domain Fc-fusion (human, UniProt Q99665 24-622)
T2 construct: extracellular domain; bought; also called IL12Rβ2-Fc; hIL-12Rβ2-Fc
T2 sequence (looked up): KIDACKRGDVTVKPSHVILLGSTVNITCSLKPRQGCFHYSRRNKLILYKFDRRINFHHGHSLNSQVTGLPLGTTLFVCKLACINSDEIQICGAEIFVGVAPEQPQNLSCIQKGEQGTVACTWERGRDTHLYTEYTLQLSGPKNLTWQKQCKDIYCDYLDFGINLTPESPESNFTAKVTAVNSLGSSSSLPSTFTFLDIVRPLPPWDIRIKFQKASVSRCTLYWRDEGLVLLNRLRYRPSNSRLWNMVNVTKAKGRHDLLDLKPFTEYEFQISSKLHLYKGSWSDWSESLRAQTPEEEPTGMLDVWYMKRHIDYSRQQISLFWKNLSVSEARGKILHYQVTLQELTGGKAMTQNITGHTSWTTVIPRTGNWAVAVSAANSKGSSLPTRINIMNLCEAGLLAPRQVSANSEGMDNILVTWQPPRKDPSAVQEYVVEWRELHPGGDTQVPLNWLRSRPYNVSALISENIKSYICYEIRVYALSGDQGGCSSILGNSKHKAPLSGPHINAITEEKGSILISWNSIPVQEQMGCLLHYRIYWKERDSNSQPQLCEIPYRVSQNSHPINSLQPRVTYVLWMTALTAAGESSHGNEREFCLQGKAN

T3: human IL-23R extracellular domain Fc-fusion (human, UniProt Q5VWK5 24-355)
T3 construct: extracellular domain; bought; also called IL-23R-Fc
T3 sequence (looked up): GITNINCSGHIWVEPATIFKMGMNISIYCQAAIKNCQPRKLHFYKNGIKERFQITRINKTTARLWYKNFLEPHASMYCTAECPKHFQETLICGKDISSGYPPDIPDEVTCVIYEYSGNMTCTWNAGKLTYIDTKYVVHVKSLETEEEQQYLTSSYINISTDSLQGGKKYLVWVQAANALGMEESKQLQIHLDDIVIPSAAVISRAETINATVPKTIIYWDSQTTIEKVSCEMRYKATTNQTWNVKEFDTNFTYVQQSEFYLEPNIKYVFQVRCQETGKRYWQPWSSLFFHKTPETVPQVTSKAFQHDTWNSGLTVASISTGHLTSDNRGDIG


What was measured:
[1] = target: T4, human CD4, cell-expressed (human, UniProt P01730 26-458); assay: flow cytometry on MOLM-13 cells (CD4, no IL12R or IL23R), upper left panel
T4 construct: whole, on cells

[2] = target: T5, human IL12Rβ1, cell-expressed (human, UniProt P42701 24-662); assay: flow cytometry on isolated CD8+ T cells of donor D863, anti-Flag detection
T5 construct: whole, on cells; in the context of the heterodimeric receptor; also called IL12Rb1

[3] = target: T4, human CD4, cell-expressed; assay: flow cytometry on activated T cells of donor D838 (very high CD4, moderate IL12R), upper left panel
[4] = target: T1, human IL12Rβ2, cell-expressed; assay: cell-based or functional assay
[5] = target: T2, human IL12Rβ2 extracellular domain …; assay: competition ELISA, ratio to monovalent IL12Rb2#1
[6] = target: T2, human IL12Rβ2 extracellular domain …; assay: competition ELISA, coated IL-12 + IL12Rβ2-Fc
[7] = target: T2, human IL12Rβ2 extracellular domain …; assay: competition ELISA, ratio to monovalent IL12Rb2#2
[8] = target: T4, human CD4, cell-expressed; assay: flow cytometry on MOLM-13 cells (CD4, no IL12R or IL23R), upper right panel
[9] = target: T3, human IL-23R extracellular domain …; assay: competition ELISA, ratio to monovalent IL23R#19
[10] = target: T3, human IL-23R extracellular domain …; assay: competition ELISA, coated IL-23 + IL-23R-Fc
[11] = target: T4, human CD4, cell-expressed; assay: flow cytometry on activated T cells of donor D838 (very high CD4), lower left panel
[12] = target: T3, human IL-23R extracellular domain …; assay: competition ELISA, coated IL-23 + 5 nM IL-23R-Fc
[13] = target: T3, human IL-23R extracellular domain …; assay: SPR Biacore T100, captured IL-23R-Fc

| EC50 (read off the curve) [1] | binding result [2] | EC50 (read off the curve) [3] | IC50, IFNγ release, PBMC D840 [4] | IC50, IFNγ release, T cells D839 [4] | fold ctrl, IFNγ release, PBMC D840 [4] | fold ctrl, IFNγ release, T cells D839 [4] | fold ctrl [5] | IC50 [6] | fold ctrl [7] | EC50 (read off the curve) [8] | fold ctrl [9] | IC50 [10] | EC50 (read off the curve) [11] | binding result [8] | IC50 [12] | Kd [13] | koff [13] | kon [13] | Binder |
| --- | --- | --- | --- | --- | --- | --- | --- | --- | --- | --- | --- | --- | --- | --- | --- | --- | --- | --- | --- |
| ~1 nM |  | ~1 nM | 1.6 nM | 0.031 nM | 30 fold | 1130 fold |  | 11 nM | 1.4 fold |  |  |  |  |  |  |  |  |  | IL12Rb2#2-35GS-CD4#8 (bispecific antibody, defined by its make-up) EVQLVESGGRLVQAGDSLRLSCAASGRTFTSYRMGWFRQAPGKEREFVSALRWSSGNIDYTYYADSVKGRFSISGDYAKNTVYLQMNSLKAEDTAVYYCAASTRWGVMESDTEYTSWGQGTLVTVSSGGGGSGGGGSGGGGSGGGGSGGGGSGGGGSGGGGSEVQLVESGGGSVQPGGSLTLSCGTSGRTFNVMGWFRQAPGKEREFVAAVRWSSTGIYYTQYADSVKSRFTISRDNAKNTVYLEMNSLKPEDTAVYYCAADTYNSNPARWDGYDFRGQGTLVTVSS |
|  | no binding (tested: 250 nM) |  |  |  |  |  |  |  |  | ~4 nM | 0.3 fold | 6.1 nM | ~1 nM |  |  |  |  |  | IL23R#19-35GS-CD4#8 (bispecific antibody, also called BI#42; T023200042) EVQLVESGGGLVQPGGSLTLSCVASGRTFSTDVMGWFRQAPGKEREFVAAHRTSGISTVYAASVKGRFTISRDNAKNTVYLGMKSLKPEDTAVYVCAAGSDASGGYDYWGQGTLVTVSSGGGGSGGGGSGGGGSGGGGSGGGGSGGGGSGGGGSEVQLVESGGGSVQPGGSLTLSCGTSGRTFNVMGWFRQAPGKEREFVAAVRWSSTGIYYTQYADSVKSRFTISRDNAKNTVYLEMNSLKPEDTAVYYCAADTYNSNPARWDGYDFRGQGTLVTVSS |
|  |  |  |  |  |  |  |  |  |  |  |  | 16 nM |  | no binding (tested: 1E-6 M) | 16 nM | 78 nM | 0.23 s⁻¹ | 3e+06 M⁻¹ s⁻¹ | IL23R#20: 150H07 (VHH, bispecifics print NAKNTVY where this entry prints NAKNIVY; also called LG150H07) VHH: EVQLVESGGGLVQAGGSLRLSCAASGRTFSSYAMGWFRQAPGKDREFVAAISWIGESTYYADSVKGRFTISRDNAKNTVYLRMNSLKPEDTAVYYCAADLYYTAYVAAADEYDYWGQGTLVTVSS |

Further lines, the binder ahead of its results:

| Binder | EC50 (read off the curve) [1] | binding result [2] | EC50 (read off the curve) [3] | IC50, IFNγ release, PBMC D840 [4] | IC50, IFNγ release, T cells D839 [4] | fold ctrl, IFNγ release, PBMC D840 [4] | fold ctrl, IFNγ release, T cells D839 [4] | fold ctrl [5] | IC50 [6] | fold ctrl [7] | EC50 (read off the curve) [8] | fold ctrl [9] | IC50 [10] | EC50 (read off the curve) [11] | binding result [8] | IC50 [12] | Kd [13] | koff [13] | kon [13] |
| --- | --- | --- | --- | --- | --- | --- | --- | --- | --- | --- | --- | --- | --- | --- | --- | --- | --- | --- | --- |
| IL12Rb2#1-35GS-CD4#8 (bispecific antibody, defined by its make-up (Nb1-Nb2)) EVQLVESGGRLVQAGDSLRLSCAASGRTFISYRMGWFRQAPGKEREFVAALRWSSSNIDYTYYADSVKGRFSISGDYAKNTVYLQMNSLKAEDTAVYYCAASTRWGVMESDTEYTSWGQGTLVTVSSGGGGSGGGGSGGGGSGGGGSGGGGSGGGGSGGGGSEVQLVESGGGSVQPGGSLTLSCGTSGRTFNVMGWFRQAPGKEREFVAAVRWSSTGIYYTQYADSVKSRFTISRDNAKNTVYLEMNSLKPEDTAVYYCAADTYNSNPARWDGYDFRGQGTLVTVSS | ~1 nM | no binding (tested: 250 nM) | ~1 nM | 1.1 nM | 0.11 nM | 11 fold | 400 fold | 0.9 fold | 4.8 nM |  |  |  |  |  |  |  |  |  |  |
| CD4#8-35GS-IL12Rb2#1 (bispecific antibody, defined by its make-up) EVQLVESGGGSVQPGGSLTLSCGTSGRTFNVMGWFRQAPGKEREFVAAVRWSSTGIYYTQYADSVKSRFTISRDNAKNTVYLEMNSLKPEDTAVYYCAADTYNSNPARWDGYDFRGQGTLVTVSSGGGGSGGGGSGGGGSGGGGSGGGGSGGGGSGGGGSEVQLVESGGRLVQAGDSLRLSCAASGRTFISYRMGWFRQAPGKEREFVAALRWSSSNIDYTYYADSVKGRFSISGDYAKNTVYLQMNSLKAEDTAVYYCAASTRWGVMESDTEYTSWGQGTLVTVSS | ~1 nM |  | ~1 nM | 1.9 nM | 0.78 nM | 8 fold | 74 fold | 0.4 fold | 10 nM |  |  |  |  |  |  |  |  |  |  |
| CD4#8-35GS-IL12Rb2#2 (bispecific antibody, defined by its make-up) EVQLVESGGGSVQPGGSLTLSCGTSGRTFNVMGWFRQAPGKEREFVAAVRWSSTGIYYTQYADSVKSRFTISRDNAKNTVYLEMNSLKPEDTAVYYCAADTYNSNPARWDGYDFRGQGTLVTVSSGGGGSGGGGSGGGGSGGGGSGGGGSGGGGSGGGGSEVQLVESGGRLVQAGDSLRLSCAASGRTFTSYRMGWFRQAPGKEREFVSALRWSSGNIDYTYYADSVKGRFSISGDYAKNTVYLQMNSLKAEDTAVYYCAASTRWGVMESDTEYTSWGQGTLVTVSS | ~1 nM |  | ~1 nM | 2.1 nM | 0.76 nM | 8 fold | 130 fold |  | 25 nM | 0.6 fold |  |  |  |  |  |  |  |  |  |
